Four molecules from publication PMC7215387, “Comparison of Target Recognition by TRAF1 and TRAF2” (International Journal of Molecular Sciences, 2020) can be followed below.

Residues, ends and D or L forms follow the SMILES beside them.

One may read the Kd as the concentration at which binding is half-saturated.

The target of assay [1] is T1, TRAF1 F347L mutant (Homo sapiens, UniProt Q13077, F347L).
T1 construct: the TRAF1 TRAF domain (amino acid residues 220-416); 6xHis (C); made in house; host or cells: E. coli BL21 (DE3)
T1 sequence (Q13077 220-416 F347L): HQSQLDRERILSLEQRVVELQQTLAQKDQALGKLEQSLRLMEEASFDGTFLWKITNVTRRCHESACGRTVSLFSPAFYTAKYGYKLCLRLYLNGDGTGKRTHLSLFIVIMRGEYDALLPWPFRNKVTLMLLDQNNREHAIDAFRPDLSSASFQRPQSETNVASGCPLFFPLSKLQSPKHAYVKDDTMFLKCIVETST
Description: Isothermal titration calorimetry (ITC), TRAF1 F347L mutant. The format is binding. Conditions: Supplementary Figure S2a,b. The source says: To understand how TRAF1 binds with higher affinity to TANK and caspase-2, we compared the amino acid sequence of the receptor-binding hot spots on TRAF1 and TRAF2. There are three well-known hot spots in TRAFs (Figure 5a). Based on the sequence comparison, two amino acid residues in TRAF1, F347 of hot spot1 and A369 of hot spot2, were not conserved in TRAF2 (Figure 5b). As the two non-conserved amino acid residues of TRAF1 may generate different conditions for receptor-binding regions and affect its affinity for various receptors, we compared the receptor-binding regions between TRAF1 and TRAF2 by comparing the TRAF1:TANK structure with the TRAF2:latent membrane protein 1 (LMP1) structure (Figure 5c). […] S454 of TRAF2 was not critical for the formation of an H-bond cluster, unlike residues S453 and S455, which were closely located to the Q at the P0 position of the receptor peptide. […] However, F347 on TRAF1 (corresponding to L432 on TRAF2) was critical for determining receptor preference and binding affinity by contributing to the formation of a stable hydrophobic pocket in the hot spot1 motif.
A NanoITC (TA Instruments) was used for isothermal titration calorimetry experiments. […] Binding isotherms were analyzed by using the software provided by TA Instruments. […]

The target of assay [2] is TRAF1 F347L mutant (UniProt Q13077). The experiment in a line: ITC; NanoITC; peptide (1 mM) injected into the cell with TRAF domain (~20 uM); PBS; 15 °C; 25 injections; single site model.
Assay [3] addresses T2, TRAF1 TRAF domain (amino acid residues 220-416) (UniProt Q13077 220-416).
T2 construct: TRAF1 (TNF receptor-associated factor 1), TRAF domain, residues 220-416; it speaks of 'trimeric TRAF1'; source: E. coli BL21 (DE3), purified (Ni-NTA, SEC); not shown: His6, C-terminal, kept
T2 sequence (looked up): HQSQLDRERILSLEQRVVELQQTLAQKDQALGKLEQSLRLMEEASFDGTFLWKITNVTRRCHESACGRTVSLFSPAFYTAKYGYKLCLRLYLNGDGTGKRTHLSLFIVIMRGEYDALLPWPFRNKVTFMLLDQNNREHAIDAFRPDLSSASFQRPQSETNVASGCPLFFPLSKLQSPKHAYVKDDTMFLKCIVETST
The description is as above. Particulars: both partners purified.

For assay [4], the target named is T3, TRAF2 TRAF domain (amino acid residues 305-501) (UniProt Q12933 305-501).
T3 construct: TRAF2 (TNF receptor-associated factor 2), TRAF domain, residues 305-501; it speaks of 'the three subunits of TRAF2'; source: E. coli BL21 (DE3), purified (Ni-NTA, SEC); not shown: His6, C-terminal, kept
T3 sequence (looked up): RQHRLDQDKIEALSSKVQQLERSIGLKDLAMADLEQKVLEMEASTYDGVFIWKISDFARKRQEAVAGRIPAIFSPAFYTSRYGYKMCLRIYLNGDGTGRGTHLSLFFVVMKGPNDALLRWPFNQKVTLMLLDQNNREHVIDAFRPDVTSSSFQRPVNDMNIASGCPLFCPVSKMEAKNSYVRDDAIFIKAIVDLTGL
The description is as above. Conditions: both partners purified.

Assay [5] deals with TRAF2 S454A mutant (UniProt Q12933). The experiment in a line: ITC; TRADD with TRAF2 S454A mutant; who was titrated and conditions not told for this experiment.
The target in assay [6] is T2, TRAF1 TRAF domain (amino acid residues …). The experiment in a line: SPR; Biacore T200; His-tagged TRAF domain held on Ni-NTA chip; TRADD-N 0.39-3.125 uM flowed over in PBS, 30 uL/min. Particulars: both partners purified. (In general: SPR reads the build-up and loss of mass on a sensor chip optically.)
For assay [7], the target named is T3, TRAF2 TRAF domain (amino acid residues …). The assay is described as above. Conditions: both partners purified.

`CC[C@H](C)[C@H](NC(=O)[C@@H]1CCCN1C(=O)[C@@H](NC(=O)[C@@H](N)CO)C(C)C)C(=O)N[C@@H](CCC(N)=O)C(=O)N[C@@H](CS)C(=O)N[C@H](C(=O)N[C@@H](CC(=O)O)C(=O)N[C@@H](CCCCN)C(=O)N[C@H](C(=O)O)[C@@H](C)O)[C@@H](C)O` [TANK] (H-SVPIQCTDKT-OH) gave a Kd in assay [1] of around 15 µM.
On to TAQEM (source: synthetic peptide (Peptron)) [caspase-2 peptide (TAQEM)], for which the Kd worked out at 265 µM in assay [2], 86.9 µM in assay [3] and 117 µM in assay [4].
For SVPIQCTDKT (source: synthetic peptide (Peptron)) [TANK peptide (SVPIQCTDKT)], the Kd in assay [3] turned out to be 2.5 µM; in assay [4], 11.7 µM.

B1: N-terminal domain of TRADD (TRADD-N, amino acid residues 1-163) (domain or fragment, UniProt Q15628 1-163, looked up)
chain: MAAGQNGHEEWVGSAYLFVESSLDKVVLSDAYAHPQQKVAVYRALQAALAESGGSPDVLQMLKIHRSDPQLIVQLRFCGRQPCGRFLRAYREGALRAALQRSLAAALAQHSVPLQLELRAGAERLDALLADEERCLSCILAQQPDRLRDEELAELEDALRNLK
notes: TRADD (tumor necrosis factor receptor type 1-associated death domain protein), N-terminal domain, residues 1-163; Cloned into pET24a by NdeI and XhoI; source: E. coli, purified (almost identical to the method for TRAF1 and TRAF2; SEC in 20 mM Tris-HCl pH 8.0, 150 mM NaCl)
For the molecule B1, the figures for the Kd in assay [5], in assay [6] and in assay [7] were 0.055 µM, 0.082 µM and 0.018 µM, respectively.
